The results in this text go back to PMC11782696, “Claudin-11 regulates immunological barrier formation and spermatogonial proliferation through stem cell factor” (Communications Biology, 2025).

In this assay the target is T1, MBP fusion protein of the PDZ1 domain (aa 19-113) of mouse ZO1 (mouse, UniProt P39447 19-113).
T1 construct: zonula occludens 1 (ZO1), mouse, PDZ1 domain, aa 19-113 of the 1,745-amino-acid protein; Expression vector provided by Masahiko Itoh; also called MBP-zPDZ1; PDZ1 of ZO1; source: E. coli DH5α, purified (amylose resin, eluted with 10 mM maltose)
T1 sequence (looked up): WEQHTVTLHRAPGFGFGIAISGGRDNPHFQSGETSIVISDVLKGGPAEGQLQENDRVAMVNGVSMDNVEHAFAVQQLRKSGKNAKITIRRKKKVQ
In words: pull-down; GST-fused proteins on Glutathione Sepharose 4B beads incubated with eluted MBP-fused proteins at 4 °C overnight in buffer A (50 mM Tris-HCl pH 8.0, 50 mM NaCl, 1 mM EDTA, 1 mM DTT); washed three times; SDS-PAGE and Coomassie Brilliant Blue staining. To be noted: both partners purified.

B1: GST fusion protein of the C-terminal 29 amino acids of mouse CLDN11 (aa 179-207) (domain or fragment, UniProt Q60771 179-207, looked up)
chain: SGDAQSFGENRFYYSSGSSSPTHAKSAHV
notes: claudin-11 (CLDN11), mouse, C-terminal 29 amino acids, aa 179-207 of the 207-residue protein; also called GST-CL11; claudin-11 C-terminus
For B1, the binding result is on record as “binds”.
